This data set concerns the molecule itself. The data set is described as follows: native gel or EMSA; samples at the end of ThT assays (Aβ1-42 3 µM with PAI-2 pre-treated with 0-200 µM NaOCl, PBS, 28 °C) centrifuged at 24,000 x g, supernatant on 8% native PAGE, Western blot with anti-Aβ (W0-2) or anti-PAI-2.

B1: Hypochlorite-treated glycosylated PAI-2 (PAI-2^G pre-treated with NaOCl) (natural protein, human, UniProt P05120 1-415, looked up)
chain: MEDLCVANTLFALNLFKHLAKASPTQNLFLSPWSISSTMAMVYMGSRGSTEDQMAKVLQFNEVGANAVTPMTPENFTSCGFMQQIQKGSYPDAILQAQAADKIHSSFRSLSSAINASTGNYLLESVNKLFGEKSASFREEYIRLCQKYYSSEPQAVDFLECAEEARKKINSWVKTQTKGKIPNLLPEGSVDGDTRMVLVNAVYFKGKWKTPFEKKLNGLYPFRVNSAQRTPVQMMYLREKLNIGYIEDLKAQILELPYAGDVSMFLLLPDEIADVSTGLELLESEITYDKLNKWTSKDKMAEDEVEVYIPQFKLEEHYELRSILRSMGMEDAFNKGRANFSGMSERNDLFLSEVFHQAMVDVNEEGTEAAAGTGGVMTGRTGHGGPQFVADHPFLFLIMHKITNCILFFGRFSSP
modifications: glycosylated; hypochlorite-modified: dityrosine cross-linkages, reactive thiols (cysteines) reduced by 62 ± 27% at 200 µM NaOCl; positions not given
notes: m1 after treatment with NaOCl; the dose differs between experiments (0-200 µM); also called hypochlorite-treated PAI-2^G; PAI-2^G OX200; source: bought: Biotech Australia (produced in CHO cells); incubated 2 h at 24 °C with up to 200 µM NaOCl, dialysed
In the case of B1, the binding result is listed as “binds”.

B2: Hypochlorite-treated non-glycosylated PAI-2 (PAI-2^NG pre-treated with NaOCl) (natural protein, human, UniProt P05120 1-415, looked up)
chain: MEDLCVANTLFALNLFKHLAKASPTQNLFLSPWSISSTMAMVYMGSRGSTEDQMAKVLQFNEVGANAVTPMTPENFTSCGFMQQIQKGSYPDAILQAQAADKIHSSFRSLSSAINASTGNYLLESVNKLFGEKSASFREEYIRLCQKYYSSEPQAVDFLECAEEARKKINSWVKTQTKGKIPNLLPEGSVDGDTRMVLVNAVYFKGKWKTPFEKKLNGLYPFRVNSAQRTPVQMMYLREKLNIGYIEDLKAQILELPYAGDVSMFLLLPDEIADVSTGLELLESEITYDKLNKWTSKDKMAEDEVEVYIPQFKLEEHYELRSILRSMGMEDAFNKGRANFSGMSERNDLFLSEVFHQAMVDVNEEGTEAAAGTGGVMTGRTGHGGPQFVADHPFLFLIMHKITNCILFFGRFSSP
modifications: hypochlorite-modified: dityrosine cross-linkages, reactive thiols (cysteines) reduced by 75 ± 18% at 200 µM NaOCl; positions not given
notes: m2 after treatment with NaOCl; the dose differs between experiments (0-200 µM); also called hypochlorite-treated PAI-2^NG; PAI-2^NG OX200; source: bought: Biotech Australia (produced in E. coli); incubated 2 h at 24 °C with up to 200 µM NaOCl, dialysed
In the case of B2, the binding result is on record as “binds”.

Values taken from paper PMC8997907, “A Novel Role for Plasminogen Activator Inhibitor Type-2 as a Hypochlorite-Resistant Serine Protease Inhibitor and Holdase Chaperone” (Cells, 2022).
